Assay results: article PMC6019534

Biological target: MbnN from Methylosinus trichosporium OB3b, tagless (C-terminal His6 tag removed by TEV protease) (Methylosinus trichosporium OB3b)
Test: native gel or EMSA

stoichiometry N: 2
Substance: MbnN from Methylosinus trichosporium OB3b, tagless (C-terminal His6 tag removed by TEV protease) (enzyme)
